The results in this text go back to paper PMC10371798, “Protein–protein interactions between tenascin-R and RPTPζ/phosphacan are critical to maintain the architecture of perineuronal nets” (The Journal of Biological Chemistry, 2023).

“And” between values parts separate entries of the source, which are not always exact repeats. Identical values can stand only once.

Common to all, as to conditions: both partners purified
Assay [1] addresses T1, Fg domain of human tenascin-R (amino acid residues 1129-1358) (human, UniProt Q92752 1129-1358).
T1 construct: tenascin-R (TNR), human, fibrinogen-like (Fg) domain, residues 1129-1358; also called TNR(Fg); source: E. coli Origami 2(DE3), purified (Ni Sepharose, 3C cleavage, HiTrap Heparin, Superdex 200)
T1 sequence (looked up): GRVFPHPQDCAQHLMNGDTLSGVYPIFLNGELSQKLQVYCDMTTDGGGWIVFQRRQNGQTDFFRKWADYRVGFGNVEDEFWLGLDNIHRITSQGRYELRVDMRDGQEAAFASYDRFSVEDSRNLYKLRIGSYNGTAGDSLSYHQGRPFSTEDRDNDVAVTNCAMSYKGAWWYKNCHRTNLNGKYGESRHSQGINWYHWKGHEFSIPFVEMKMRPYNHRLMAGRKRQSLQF
Briefly: BLI; biotinylated FN domain of RPTPζ (250 nM) immobilised on streptavidin tips; Fg domain in solution; room temperature; 150 mM NaCl, 10 mM Na-Hepes pH 7.5, 1 mg/ml BSA, 0.02% Tween-20, 5 mM EDTA; KD from the signal at equilibrium. Background: Biolayer interferometry detects binding as a change in optical thickness at a sensor tip.

For assay [2], the target named is T2, Fg domain of human tenascin-C (amino acid residues 1975-2201) (human, UniProt P24821 1975-2201).
T2 construct: tenascin-C (TNC), human, fibrinogen-like (Fg) domain, residues 1975-2201; also called TNC(Fg); WT TNC; source: E. coli Origami 2(DE3), purified (Ni Sepharose, 3C cleavage, HiTrap Heparin, Superdex 200)
T2 sequence (looked up): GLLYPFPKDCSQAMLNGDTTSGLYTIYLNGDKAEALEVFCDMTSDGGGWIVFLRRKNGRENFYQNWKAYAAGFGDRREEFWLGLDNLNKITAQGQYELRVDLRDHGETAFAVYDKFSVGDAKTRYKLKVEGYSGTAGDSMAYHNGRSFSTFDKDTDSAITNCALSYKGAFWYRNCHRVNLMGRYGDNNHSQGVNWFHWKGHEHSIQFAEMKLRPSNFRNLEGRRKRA
Described as above.

Assay [3] addresses T1, Fg domain of human tenascin-R (amino …). Briefly: BLI; biotinylated FN domain of RPTPζ (250 nM) immobilised on streptavidin tips; Fg domain in solution; room temperature; 150 mM NaCl, 10 mM Na-Hepes pH 7.5, 1 mg/ml BSA, 0.02% Tween-20, 5 mM CaCl2; KD from the signal at equilibrium.
Assay [4] addresses T2, Fg domain of human tenascin-C (amino …). Described as above.
In assay [5] the target is T3, Fg domain of human tenascin-C (human, UniProt P24821 1975-2201).
T3 construct: C-terminal fibrinogen-like (Fg) domain of human tenascin-C, amino acid residues 1975-2201; also called HTNC(Fg); TNC(Fg); source: E. coli Origami 2(DE3), purified (Ni Sepharose, HRV 3C cleavage, HiTrap Heparin, Superdex 200)
T3 sequence (looked up): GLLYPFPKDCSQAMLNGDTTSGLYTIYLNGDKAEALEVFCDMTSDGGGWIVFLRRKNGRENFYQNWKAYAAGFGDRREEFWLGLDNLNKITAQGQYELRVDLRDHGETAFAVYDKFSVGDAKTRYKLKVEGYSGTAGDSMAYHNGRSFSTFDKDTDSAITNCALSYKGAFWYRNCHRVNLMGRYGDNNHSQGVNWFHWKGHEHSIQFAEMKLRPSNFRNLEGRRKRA
The assay can be described thus: BLI; biotinylated RPTPζ(FN) on streptavidin tips, Fg domain as analyte; room temperature, 150 mM NaCl, 10 mM Na-Hepes pH 7.5, 1 mg/ml BSA, 0.02% Tween-20, 5 mM CaCl2; dose-response analysis of the signal at equilibrium.

The target in assay [6] is T4, Fg domain of human tenascin-R (human, UniProt Q92752 1129-1358).
T4 construct: C-terminal fibrinogen-like (Fg) domain of human tenascin-R, amino acid residues 1129-1358; also called HTNR(Fg); TNR(Fg); source: E. coli Origami 2(DE3), purified (Ni Sepharose, HRV 3C cleavage, HiTrap Heparin, Superdex 200)
T4 sequence (looked up): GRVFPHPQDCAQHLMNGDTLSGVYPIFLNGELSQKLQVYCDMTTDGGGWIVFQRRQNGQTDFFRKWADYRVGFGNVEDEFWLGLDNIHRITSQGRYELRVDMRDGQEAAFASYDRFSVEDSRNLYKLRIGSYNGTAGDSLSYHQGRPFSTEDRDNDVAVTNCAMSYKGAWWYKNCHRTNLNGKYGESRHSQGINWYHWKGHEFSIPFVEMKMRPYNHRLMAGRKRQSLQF
The assay is described as above.

Assay [7] addresses T3, Fg domain of human tenascin-C. The assay can be described thus: BLI; biotinylated RPTPζ(FN) on streptavidin tips, Fg domain as analyte; room temperature, 150 mM NaCl, 10 mM Na-Hepes pH 7.5, 1 mg/ml BSA, 0.02% Tween-20, 5 mM CaCl2; kinetic analysis, sensorgrams fitted to a 1:1 binding model.
The target in assay [8] is T4, Fg domain of human tenascin-R. The description is as above.
Assay [9] addresses T5, CA-FN domains of human RPTPζ (amino acid residues 34-410) fused to human IgG1 Fc, purified (human, UniProt P23471 34-410).
T5 construct: RPTPζ, human, carbonic anhydrase-like and FN domains (CA-FN), residues 34-410; also called RPTPζ(CA-FN); IgG Fc fusion of RPTPζ(CA-FN)
The assay can be described thus: AlphaScreen or HTRF; competition format: biotinylated human TNC(Fg) (5 nM) on streptavidin donor beads, purified RPTPζ(CA-FN)-Fc (0.5 nM) on protein A acceptor beads, untagged Fg domains at varying concentrations; room temperature; one-site competition fit. (In general: Alpha assays give light when donor and acceptor beads are brought close together.)

Assay [10] concerns the target T6, CA-FN domains of human RPTPζ fused to human IgG1 Fc (human, UniProt P23471 34-410).
T6 construct: carbonic anhydrase-like and fibronectin type III (CA-FN) domains of human RPTPζ, amino acid residues 34-410; also called RPTPζ(CA-FN)-Fc; RPTPζ(CA-FN)
Briefly: AlphaScreen or HTRF; competition: RPTPζ(CA-FN)-Fc (0.5 nM) on protein A acceptor beads, biotinylated TNC(Fg) (5 nM) on streptavidin donor beads, untagged Fg domain as inhibitor in a dilution series; room temperature; one-site competition fit.

B1: biotinylated FN domain of human RPTPζ (domain or fragment)
chain: not shown
modifications: biotin (EZ-Link NHS-PEG4-Biotin, 1:1 molar ratio)
As for B1, the Kd in assay [1] was 712 nM; in [2], 9900 nM; in assay [3], 112 nM; in assay [4] it was 187 nM. The koff in assay [3] and in assay [4] was over 0.01 s⁻¹ each time.

B2: biotinylated FN domain of human RPTPζ (domain or fragment)
chain: not shown
modifications: biotin (EZ-Link NHS-PEG4-Biotin, 1:1 molar ratio)
With B2, the Kd in [5] was 242 nM and 191 nM and 127 nM and 187 nM; in [6], 114 nM and 117 nM and 113 nM and 104 nM; in [7], 150 nM and 170 nM and 189 nM and 173 nM; in assay [8], 79 nM and 80 nM and 78 nM.

B3: biotinylated Fg domain of human tenascin-C with a cysteine residue added at the N-terminus (domain or fragment)
chain: CGLLYPFPKDCSQAMLNGDTTSGLYTIYLNGDKAEALEVFCDMTSDGGGWIVFLRRKNGRENFYQNWKAYAAGFGDRREEFWLGLDNLNKITAQGQYELRVDLRDHGETAFAVYDKFSVGDAKTRYKLKVEGYSGTAGDSMAYHNGRSFSTFDKDTDSAITNCALSYKGAFWYRNCHRVNLMGRYGDNNHSQGVNWFHWKGHEHSIQFAEMKLRPSNFRNLEGRRKRA
modifications: biotin (EZ-Link Maleimide-PEG2-Biotin) on the added N-terminal cysteine
notes: cysteine residue added at the N-terminus of the Fg domain by site-directed mutagenesis; tenascin-C (TNC), human, fibrinogen-like (Fg) domain, residues 1975-2201; also called biotinylated human TNC(Fg); biotinylated TNC(Fg); source: E. coli Origami 2(DE3), purified, biotinylated, then gel filtration
With B3, the binding result in assay [9] is given as “binds”.

B4: biotinylated Fg domain of human tenascin-C with an added N-terminal cysteine (domain or fragment)
chain: CGLLYPFPKDCSQAMLNGDTTSGLYTIYLNGDKAEALEVFCDMTSDGGGWIVFLRRKNGRENFYQNWKAYAAGFGDRREEFWLGLDNLNKITAQGQYELRVDLRDHGETAFAVYDKFSVGDAKTRYKLKVEGYSGTAGDSMAYHNGRSFSTFDKDTDSAITNCALSYKGAFWYRNCHRVNLMGRYGDNNHSQGVNWFHWKGHEHSIQFAEMKLRPSNFRNLEGRRKRA
modifications: biotin (EZ-Link Maleimide-PEG2-Biotin) on the cysteine added at the N-terminus
notes: a cysteine residue added at the N-terminus of the Fg domain by site-directed mutagenesis; C-terminal fibrinogen-like (Fg) domain of human tenascin-C, amino acid residues 1975-2201; also called biotin-HTNC(Fg); biotinylated human TNC(Fg); source: E. coli Origami 2(DE3), purified, biotinylated, then gel filtration
Consider B4, for which the binding result in [10] is on record as “binds”.

The term Kd denotes a measure of binding affinity in units of concentration. High values mean lower affinity, low ones higher affinity. By koff is commonly meant the rate constant with which the complex falls apart.
